Reference: patent US20240294670A1 (University of Texas, published 2024)

Columns and labels:
Assay in all cases: anti-His co-IP of rCHI3L1 from Kupffer cell lysate, MS; listed under 'proteins bound to CHI3L1'
Q3UQ71_MOUSE = target: T1, Q3UQ71_MOUSE (mouse, UniProt Q3UQ71 1-554)
T1 construct: also called tr|Q3UQ71|Q3UQ71_MOUSE
T1 sequence: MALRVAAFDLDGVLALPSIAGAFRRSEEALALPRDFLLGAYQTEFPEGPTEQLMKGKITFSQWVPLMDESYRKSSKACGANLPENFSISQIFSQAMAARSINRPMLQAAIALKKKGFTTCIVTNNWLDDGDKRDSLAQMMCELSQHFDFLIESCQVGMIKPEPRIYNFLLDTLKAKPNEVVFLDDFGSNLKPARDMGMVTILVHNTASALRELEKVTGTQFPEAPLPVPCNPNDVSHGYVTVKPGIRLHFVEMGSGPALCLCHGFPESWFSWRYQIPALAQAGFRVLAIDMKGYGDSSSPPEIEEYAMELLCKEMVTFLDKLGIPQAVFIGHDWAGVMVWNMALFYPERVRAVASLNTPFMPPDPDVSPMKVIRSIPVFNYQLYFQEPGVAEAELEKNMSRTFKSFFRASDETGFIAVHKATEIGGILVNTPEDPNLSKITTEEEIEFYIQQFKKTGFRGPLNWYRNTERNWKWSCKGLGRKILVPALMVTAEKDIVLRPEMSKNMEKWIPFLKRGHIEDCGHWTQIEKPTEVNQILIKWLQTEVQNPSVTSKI
Method: (§1) CHI3L1 interacts with CD44 on KCs. To further understand how CHI3L1 mediates the function of KCs to recruit platelets, the inventors set out to identify its receptor on KCs. They isolated KCs from WT mice treated with APAP for 3 h and incubated the cells with His-tagged rCHI3L1. The cell lysate was subjected to immunoprecipitation using an anti-His antibody. The “pulled down” fraction was subjected to LC/MS analyses. A partial list of proteins identified, including CHI3L1 itself, is shown in (Extended Data Table 1). Because CD44 is a cell membrane protein, the inventors decided to investigate it is a receptor for CHI3L1. They performed/immunoprecipitation experiments using liver homogenates obtained from WT and CD44^{-/-} mice after APAP treatment. […] Moreover, the inventors incubated rhCHI3L1 with human CD44 and then immunoprecipitated with an anti-CD44 antibody. The data confirmed a direct binding between CHI3L1 and CD44 (FIG. 3C). Consistent with the notion that many cell types express CD44, they detected CD44 express on various hepatic non-parenchymal cells (NPCs) except B cells and DCs (summarized in Extended Data Table 2). However, when they incubated liver NPCs with His-tagged rCHI3L1, the inventors observed that the only CD44-expressing cells that could bind to CHI3L1 were KCs (FIG. 3D).

Q3T9S7_MOUSE = target: T2, Q3T9S7_MOUSE (mouse, UniProt Q3T9S7 22-1179)
T2 construct: also called tr|Q3T9S7|Q3T9S7_MOUSE
T2 sequence: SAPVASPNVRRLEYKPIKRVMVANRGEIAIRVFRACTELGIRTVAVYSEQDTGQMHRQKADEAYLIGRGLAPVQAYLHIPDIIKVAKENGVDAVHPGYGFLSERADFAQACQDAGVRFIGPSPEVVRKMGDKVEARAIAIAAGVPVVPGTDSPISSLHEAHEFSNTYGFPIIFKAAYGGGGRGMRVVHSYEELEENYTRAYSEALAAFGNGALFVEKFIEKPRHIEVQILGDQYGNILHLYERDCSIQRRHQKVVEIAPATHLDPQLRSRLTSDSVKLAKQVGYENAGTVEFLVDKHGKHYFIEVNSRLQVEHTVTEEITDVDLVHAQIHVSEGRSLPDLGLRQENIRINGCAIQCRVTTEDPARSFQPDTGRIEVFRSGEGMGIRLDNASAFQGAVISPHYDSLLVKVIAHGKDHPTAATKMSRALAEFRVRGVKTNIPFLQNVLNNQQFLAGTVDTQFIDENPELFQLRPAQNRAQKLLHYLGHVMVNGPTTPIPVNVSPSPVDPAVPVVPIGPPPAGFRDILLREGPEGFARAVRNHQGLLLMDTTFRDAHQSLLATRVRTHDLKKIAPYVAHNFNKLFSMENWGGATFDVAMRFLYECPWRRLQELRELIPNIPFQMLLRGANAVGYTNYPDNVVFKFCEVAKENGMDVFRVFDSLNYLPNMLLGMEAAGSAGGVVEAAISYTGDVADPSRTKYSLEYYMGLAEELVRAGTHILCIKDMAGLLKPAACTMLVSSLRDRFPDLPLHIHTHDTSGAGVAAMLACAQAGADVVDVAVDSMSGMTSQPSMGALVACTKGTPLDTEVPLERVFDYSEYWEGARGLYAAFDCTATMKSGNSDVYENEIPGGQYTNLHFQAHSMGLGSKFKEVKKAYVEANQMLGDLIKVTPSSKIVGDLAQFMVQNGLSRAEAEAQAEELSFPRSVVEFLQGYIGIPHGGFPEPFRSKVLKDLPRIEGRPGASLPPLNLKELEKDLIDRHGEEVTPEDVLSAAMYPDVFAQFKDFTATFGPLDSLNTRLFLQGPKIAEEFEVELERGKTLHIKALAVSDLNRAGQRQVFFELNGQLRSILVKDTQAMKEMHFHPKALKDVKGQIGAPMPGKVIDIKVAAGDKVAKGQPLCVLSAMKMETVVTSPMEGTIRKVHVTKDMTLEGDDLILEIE
Method: as §1

Q8C6E3_MOUSE = target: T3, Q8C6E3_MOUSE (mouse, UniProt Q8C6E3 2-527)
T3 construct: also called tr|Q8C6E3|Q8C6E3_MOUSE
T3 sequence: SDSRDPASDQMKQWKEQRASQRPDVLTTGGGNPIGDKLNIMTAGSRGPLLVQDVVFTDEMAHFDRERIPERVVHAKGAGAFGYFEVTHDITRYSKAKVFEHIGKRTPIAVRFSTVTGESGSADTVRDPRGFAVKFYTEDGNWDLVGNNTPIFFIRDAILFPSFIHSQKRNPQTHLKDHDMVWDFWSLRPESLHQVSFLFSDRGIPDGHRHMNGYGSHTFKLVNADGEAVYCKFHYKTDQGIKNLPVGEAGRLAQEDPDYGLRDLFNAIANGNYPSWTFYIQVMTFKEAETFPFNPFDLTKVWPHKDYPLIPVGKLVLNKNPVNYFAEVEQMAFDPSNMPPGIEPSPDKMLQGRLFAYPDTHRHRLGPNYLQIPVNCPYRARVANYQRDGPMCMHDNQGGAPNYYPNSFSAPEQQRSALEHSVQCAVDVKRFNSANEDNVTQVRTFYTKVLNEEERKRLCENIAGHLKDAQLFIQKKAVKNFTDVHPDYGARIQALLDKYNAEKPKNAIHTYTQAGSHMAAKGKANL
Method: as §1

Measured: binding result

B1: recombinant mouse CHI3L1 (ligand)
chain: not shown
notes: His-tagged; also called mCHI3L1; mChi3l1
binds: all assays above
